Experimental data: article PMC3057111
Residue numbers refer to the chain shown, from its start.

What was measured:
[1] = target: T1, hnRNPLL RRM1 V136D (thunder) (Mus musculus, UniProt Q921F4 109-213, V136D); experiment: NMR titration
T1 sequence: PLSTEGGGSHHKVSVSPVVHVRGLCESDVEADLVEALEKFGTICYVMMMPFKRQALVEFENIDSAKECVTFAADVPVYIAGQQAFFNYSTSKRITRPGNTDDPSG

[2] = target: T1, hnRNPLL RRM1 V136D (thunder); experiment: NMR titration; remark: listed apart in the source
[3] = target: T1, hnRNPLL RRM1 V136D (thunder); experiment: ITC
hnRNPLL RRM1 WT [4] = target: T2, hnRNPLL RRM1 WT (Mus musculus, UniProt Q921F4 109-213); experiment: ITC
T2 sequence: T1 sequence with D28V

hnRNPLL RRM1 WT [5] = target: T2, hnRNPLL RRM1 WT; experiment: NMR titration
[6] = target: T1, hnRNPLL RRM1 V136D (thunder); experiment: NMR titration; remark: listed apart in the source
hnRNPLL RRM1 WT [7] = target: T2, hnRNPLL RRM1 WT; experiment: NMR titration; remark: listed apart in the source
hnRNPLL RRM1 WT [8] = target: T2, hnRNPLL RRM1 WT; experiment: NMR titration; remark: listed apart in the source

CCUUACCUGCACGCA (ssRNA) [Ptprc exon 6 ARS 15-mer WT] was tested, and the Kd [1] was 1.1 ± 0.4 µM, the Kd [2] was 2 ± 0.7 µM and the Kd [3] was 3.1 ± 1.4 µM. The Kd (hnRNPLL RRM1 WT [4]) was 1.9 ± 0.4 µM, the Kd (hnRNPLL RRM1 WT [5]) was 0.1 µM and the Kd [6] was 1 ± 0.4 µM. For the same binder, the Kd (hnRNPLL RRM1 WT [7]) was 1.5 ± 1.3 µM and the Kd (hnRNPLL RRM1 WT [8]) was 0.7 ± 0.7 µM.
